In the nanobody polyreactivity screen of Harvey et al. (2022):

Test: yeast display, Sf9 membrane polyspecificity reagent, FACS + sequencing; frameworks hold sequencing errors
In short: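 Synthetic nanobody libraries on Saccharomyces cerevisiae BJ5465 were galactose-induced for 36–48 hours, stained 1 hour at 4 °C with 10% biotinylated, detergent-solubilized Sf9 membrane reagent and enriched on streptavidin microbeads. FACS then separated cells into low and high (top ~1%) gates by anti-HA (expression) and streptavidin (reagent binding) fluorescence. Genes were colony-PCR amplified, MiSeq 2 × 250 sequenced and CDR-length filtered. A clone's polyreactivity label is that of its gate of origin.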

Row | Sequence | polyreactivity (PSR sort gate)
1 | QVQRVESGGGLVKAGGRLRLSSAASGGTFKRYTMGWYRQAPGKETELVARIHYRTGSTYYADSVKGRFTISRDNAKNTVYLQMNSLKPEDTAVYYCAAREWYGFAFDYWGQGTQVTVSS | high polyreactivity
2 | QVQLVESGGGLVQAGGSLRLSCAASGSIFYPYAMGWYRQAPGKERELVAAISYSGGSTYYADSVKGSFTISRDNAKNTVYLQMNSMKPEDTAVYYCNRRYWRRPYYKYDYWGQGTQVTVSS | high polyreactivity
3 | QVQLVESGGGLVQAGGSLRLSCAASGSTFSYYAMGWYRQAPGKERELVAVISRGGSTNYADSVKGRFTISRDNAKNTVYLQMNSLKPEDTAVYYCAAYVLPWRGRGQTEYGYWGQGTQVTVSS | low polyreactivity
4 | QVQLVESGGGLVQAGGSLRLSCAASGSTFVGYAMGWYRQAPGKERELVASITRRGGSTYYADSVKGRFTISRDNAKNTVYLQMNSLKPEDTAVYYCATPLYKTATWRAYEYWGQGTQVTVSS | high polyreactivity
5 | QVQLVESGGGLVQAGGSLRLSCAASGSTFVYAMAWYSQAPGKERELVAAITTGDSTYYADSVKGRFTISRDNAKNTVYLQMNSLKPEDTAVYYCAAQWYTRYGEYGYWGQGTQVTVSS | low polyreactivity
6 | QVQLQESGGGLVQAGDSQRLSCAASGNIFRFTDMGWYRKAPGKERELVAAINAGSTTYYADSVKGRFTISRDNAKNTVYLQMNSLKPEDTAVYYCAVYYLGSGTFGYWGQGAQVTVSS | high polyreactivity
7 | QVQLVESGGGLVQAGGILRLSCAASGRIFRVNTMGWYRKAPGKERELVAAIRSSGTRTYYADSVKGRFTISRDNAKNTVYLQMNSVKPEDTAVYYCAAYAWRYQAWEFGYWGQGTQVTVSS | high polyreactivity
8 | QVQLVESGGGLVQAGGSLRLSCAASGSTSPIYAMGWYRQAPGKERELVAAINGVGSTNYADSVKGRFTISRDNAKNTVYLQMNSLKPEDTAVYYCNTRYSPGYQGTEVDYWGQGTQVTVSS | low polyreactivity
9 | QVQLVESGGGLVQAGGSLRLSCAASGRIFKGYAMGWYRQAPGKERELVAAITWRGGTTYYADSVKGRFTISRDNAKNTVYLQMNSLKPEDTAVYYCAAVTRRYVLSTFYYWGQGTQVTVSS | high polyreactivity
10 | QVQLVESRRGLVQARGSLRLSCAASGITFRWYAMGWYRQAPGKERELVAAITTGGSTKYADSVKGRFTISRDNAKNTVYLQMNSLKPEDTAVYYCAARGRYAGGYWGQGTQVTVSS | high polyreactivity
11 | QVQHVESGGGVVQAVGSLRLSCAASGYIFRTNAMGWYRQARGKERELVAAITRSGGRTYYADSVKGRFTISRDNAKNTVYLQMNSLKPEDTAVYYCAAGGRKPVITGDYWGQGTQVTVSS | high polyreactivity
12 | QVQLVESVGGLVQAGGSLRLSSAASGRTSWYYAMGWYRQAPGKERELVATITRTTGSTYYADSVKGRFTISRDNAKNTVYLQMNSLKPEDTAVYYCDRLYYFNGDYWGLGTQVTVSS | high polyreactivity
13 | QVQLEESGGGLVQAGGSLRLSCAASGFTFAYYAMGWYRQAPGKERELVAGISWRGGRTYYADSVKGRFTISRDNAKNTVYLQMNSLKPEDTAVYYCNARNSYRPGRGYDYGGQGTQVTVSS | high polyreactivity
14 | QVQLVESGGGLVQAGGSLRLSCAASGLILYNYAMGWYRQAPGKERELVAAISRSGGSTYYADSVKGRFTISRDNAKNTVYLQMNSLKPEDTAVYYCKVGYGRGSTIGGYDYWGQGTQVTVSS | high polyreactivity
15 | QVQLVESRGGLVQAGGSLSLSCAASGSTYNASAMGWYRQATGKERELVAAISSGGSTYYADSVKGRFTISRDNANNTVYLQMNSLKPEDTAVLYCAAVLTGHYYRFDYWGQGTQVNVSS | low polyreactivity
16 | QVQLVESGGGLVQAGGSLRLSCADSGSTFLYYGMGWYRQAPGKERELVAGIDGTGSSTYYADSVKGRFTISRDNAKNTVYLQMNSLKPEDTAVYYCAKRYPRYRSRYYYWGQGTQVTVSS | low polyreactivity
17 | QVQLVESGGGLVQAGGSLRLSCAASGFTLYNNAMGWYRQAPGKERELVARISGSGGSTYYADSVKGRFTISRDNAKNTVYLQMNSLKPEDTAVYYCNARATYVPTYGYTHWYNYWGQGTQVTVSS | low polyreactivity
18 | QVQLVESGGGLVQAGGSLRLSCAASGFISRFNSMGWYRKAPGKERELVAAISWYGGITYYADSVKGRFTISRDNAKNTVYLQMNSLKPEDTAVYYCNAGDHIRKRYGISATWGYGYGYWGQGTQVTVSS | high polyreactivity
19 | QFQRVESGGGLVQAGGSLRLSSAASASIFSVYTMGWSRQAPGKERELDAAISTGGGSKYYADSVKGRFTISRDNAKNTVYLQMKSLKPEDTSVYYCGTDYGWPPSYWYDSFGQGTQVTVSS | low polyreactivity
20 | QVQLVESGGGLVQAGGSLRLSCAASGSIAMGWYRQAPGKERELVATISSSGGSTYYADSVKGRFTISRDNAKNTVYLQMNSLKPEDTAVYYCNTQAVYGGGEGGYDYWGQGTQLTVSS | low polyreactivity

Row | Sequence | polyreactivity (PSR sort gate)
21 | QVQLVESGGGLVQAGGSLRLSCAASGFIFAGYAMGWYRQAPGKERELVAAISGSGGRTYYADSVKGRFTISRDNAKNTVYLQMNSLKPEDTAVYYCNAGKQYRYDWGQGTQVTVSS | high polyreactivity
22 | QDQLVESGGGLVHAGGSLRLSCAASGSTFSIYAMGWYRQAPGKERELVAAIPYSGGSTYYADSVKGRFTISRDNAKNTVYLQMHSLKPEDTAVNYCAAEVYDSRWWYSGATDDYWGQGTQVSVSS | high polyreactivity
23 | QVQLVESGAGLVQAGGSLRLSCAASGFIFAGNAMGWYIQAPGKERELVAAITRRGGSTHYADSVKGRFTISRDKAKNTVYLQMNSLKPEDTAVYYCNAAVQPPLSDYWGQGTQVTVSS | low polyreactivity
24 | QVQLVESGGGLVQAGGSLRLSCAASGITFNSYAMGWYRQAPGKERELVASITERGDSTYYADSVKGRFTLSRDNAKNTVYLQMNSLKPEDTGVYYCAAAEHLTRPSSPTQDGDHWGQGTQVTVSS | low polyreactivity
25 | QVQLVESGGGLVQAGGSLRLSCAASGFTFSFYAMGWYRQAPGKERELVAPISYSGGITYYADSVKGRFTISRENWKNTVYLQMNSLKPEDTAVYYCAAVPYYSKGSSHYNSGNNYCGQGTQVTVSS | low polyreactivity
26 | QVQLVESGGGLVQAGGSLRLSCAASGRIFFRNAMGWYRQAPGKERELVAAISKSGTRTYYADSVKGRFTISRDNAKNTVYLQMHSLKPEDTAVYYCNALLRDCGTYAGDDYWGQGTQVTVSS | high polyreactivity
27 | QVQLVESGGGLVQAGGSLRLSCAASGRTFVVNAMGWYSPAPGKEREFVAGISVRGGITYYADSVKGRFTISRDNAKNTVYLQMNSLKPEDTAVYYCAAYILDYGGDQRIFDYWGQGTQVTVSS | low polyreactivity
28 | QVQLVESGGGLVQAGGSLRLSCAASGRTFPSYVMGWYRQAPGKERELVAAITATGASTYYADSVKGRFTISRDNAKNTVYLQMNSQKPEDTAVYYCAASRYGLYENGYEYYWGQVTQVTVSS | low polyreactivity
29 | QVQLVESGGGLVQAGGSLRLSCAASGRTFIINGMGWYRQAPGKERELVAAITTSGGSTYYADSVKGRFTISRDNAKNTVYLQMNSLKPEDTAVYSCAADVFSRKYLYGDYDYWGQGTQVTVSS | high polyreactivity
30 | QVQLVESGGGLVQAGGSLRLSCAASGRTFYAYTMGWYRTAPGKERELVAAITRRGGSTYYADSVKGRFTISRDNAKNTVYLQMNSLKPEDTAVYYCAASYSHRNYGLTYDYWGQGTQVTVSS | high polyreactivity
31 | QVQLVESGGGLVQAGGSLRLSCAASGSISIKNAMGWYSQAPGKERELVATITYNGGSTYYADSVKGRFTISRDNAKNTVYLQMNSLKPEDTAVYYCSAGYLYYAEYDYWGQGTQVTVSS | low polyreactivity
32 | QVQLVESGGGLVQAGGSLRLSCAASGRTFSRYAMGWYRQAPGKEREFVAAISASGGSTYYADSVKGRFTISRDNAKNTVYLQMNSLKPEDTAVYYCAASGYYRYYQYRYDYWGQGTQVTVSS | high polyreactivity
33 | QVQLVESGGGLVQAGGSLRLSCAASGRTFGKNAMGWYRQAPGKEREFVAAITSRGGSTYYADSVKGRFTISRDNAKNTVYLQMNSLKPEDTAVYYCNREYNRPSQRTEHYYWGQGTQVTVSS | low polyreactivity
34 | QVQLVESGGGLVQAGGSLRLSCAASGIIFRNYAMGLYRQAPGKEREFVAAISGSGTSTYYADSVKGRFTISRDNAKNTVYLQMNSLKPEDTAVYYCAAEKYSYPYDYEYWGQGTQVTVSS | high polyreactivity
35 | QVQLVESGGGLVQAGGSLRLSCAASGLILKNYAMGWYRQAPWKERELVAAITRSGGSTYYADSVKGRFTISRDNAKNTVYLQMNSLKPEDTAVYYCAARNPSGKGRYDYRGQGTQVTVSS | high polyreactivity
36 | QVQLVESGGGLVQAGGSLRLSCAASGIIFHFNAMGWYRQAPGKERELVAAITSGANTNYADSVKGRFTISRDNAKNTVYLQMNSLKPEDTSVYYCATRPHTDVRFVRTRRYDYWGQGTQVTVSS | low polyreactivity
37 | QVQLVESGGGLVQAGGSLRLSCAASGSTFYLYAMGWYRQAPGKERELVAAISWSGDSTYYADSVKGRFTISRDNAKNTVYLQMNSLKPEDTAVYYCAAEFYWGDLSYWGQGTQVTVSS | high polyreactivity
38 | QVQLVESGGGLVQAGGSLRLSCAASGSIFSVNAMGWYRQAPGTEREFVASINFRGGRTYYADSVKGRFRISRDNAKNTVYLQMNCLKPEDTADYYCAAVITLTDTGYGPSFRVFYWGQGTQVTVSS | high polyreactivity
39 | QVQLVESGGGLVQAGGSLRLSCAPSGSIFYVYARGWYRQAPGKERQLVATIPRVGRTYYADSVKGRFTISRDNAKNTVYLQRNSLKPEDTAVYYCATRYGGRSYKYDYWGQGTQVTVSS | high polyreactivity
40 | QVQLVESGGGLVQAGGSLRLSCAASGRTLRGNAMGWYRQAPGKERELVAVITRRGGSTYYADSVKGRFTISRDNAKNTFYLQMNSLKPEDTAVYYCAAVPYYYKYDYWGQGTQVTVSS | high polyreactivity
